Test results published in the supplement of paper PMC7125110.
± gives the standard error. This sample holds only a part of the variants without activity.

B1: glmS ribozyme (parent)
chain: AUAAAAGCGCCAGAACUACAGAAAUGUAGUUGACGAGGAGGAGGUUUAUCGAAUUUUCGGCGGAUGCCUCCAAA

Key:
Settings in all cases: with glucosamine-6-phosphate
glucosamine-6-phosphate [1] = variants of: B1; assay: self-cleavage kobs at 40 uM GlcN6P; higher = faster cleavage; RNA array
How it was run: (§1)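 E. coli RNA polymerase transcribed barcoded ribozyme variants in situ on sequenced MiSeq chips, which were tracked via a hybridised Cy3 probe at 37 °C. Tiles were imaged over ~14 h after glucosamine-6-phosphate (40 μM to 10 mM) in HEPES/KCl/Mg(OAc)2 buffer was flowed in. Normalised per-tile medians were fit to one- or two-exponential decays for kobs, and kcat and KM came from weighted Michaelis–Menten fits.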

glucosamine-6-phosphate [2] = variants of: B1; assay: self-cleavage kobs at 2500 uM GlcN6P; higher = faster cleavage; RNA array
How it was run: as §1

glucosamine-6-phosphate [3] = variants of: B1; assay: self-cleavage kobs at 160 uM GlcN6P; higher = faster cleavage; RNA array
How it was run: as §1

glucosamine-6-phosphate [4] = variants of: B1; assay: self-cleavage kobs at 640 uM GlcN6P; higher = faster cleavage; RNA array
How it was run: as §1

glucosamine-6-phosphate [5] = variants of: B1; assay: self-cleavage kobs at 10000 uM GlcN6P; higher = faster cleavage; RNA array
How it was run: as §1

Row | Variant | self-cleavage kobs at 40 uM GlcN6P (glucosamine-6-phosphate [1]) | self-cleavage kobs at 2500 uM GlcN6P (glucosamine-6-phosphate [2]) | self-cleavage kobs at 160 uM GlcN6P (glucosamine-6-phosphate [3]) | self-cleavage kobs at 640 uM GlcN6P (glucosamine-6-phosphate [4]) | self-cleavage kobs at 10000 uM GlcN6P (glucosamine-6-phosphate [5])
1 | A6C U49G C67U | < 1e-05 s⁻¹ | < 1e-05 s⁻¹ |  |  | 
2 | A6C G62C | < 1e-05 s⁻¹ | < 1e-05 s⁻¹ | < 1e-05 s⁻¹ | < 1e-05 s⁻¹ | < 1e-05 s⁻¹
3 | A14G U30A A39G A53C | 9.97e-05 ± 2.6e-05 s⁻¹ |  |  |  | 0.00799 ± 0.0023 s⁻¹
4 | U30A G60U | < 1e-05 s⁻¹ |  | < 1e-05 s⁻¹ | < 1e-05 s⁻¹ | < 1e-05 s⁻¹
5 | U47A G60A | < 1e-05 s⁻¹ | < 1e-05 s⁻¹ | < 1e-05 s⁻¹ |  | 
6 | C8G A64G | < 1e-05 s⁻¹ | < 1e-05 s⁻¹ | < 1e-05 s⁻¹ |  | < 1e-05 s⁻¹
7 | C8A C58U | < 1e-05 s⁻¹ | < 1e-05 s⁻¹ | < 1e-05 s⁻¹ | < 1e-05 s⁻¹ | < 1e-05 s⁻¹
8 | G51A G62C | < 1e-05 s⁻¹ | < 1e-05 s⁻¹ | < 1e-05 s⁻¹ | < 1e-05 s⁻¹ | < 1e-05 s⁻¹
9 | U56G G62U G63U | < 1e-05 s⁻¹ |  |  |  | < 1e-05 s⁻¹
10 | A14U C16U | 0.00025 ± 3.2e-05 s⁻¹ | 0.00183 ± 0.0004 s⁻¹ | 0.000555 ± 0.00011 s⁻¹ | 0.00297 ± 0.00042 s⁻¹ | 0.00789 ± 0.001 s⁻¹
11 | G44A G63C | < 1e-05 s⁻¹ | < 1e-05 s⁻¹ |  | < 1e-05 s⁻¹ | < 1e-05 s⁻¹
12 | G40U C67U C70A | < 1e-05 s⁻¹ |  |  |  | 
13 | G32U C58G G60U | < 1e-05 s⁻¹ |  |  |  | 
14 | C34A U56C | < 1e-05 s⁻¹ | < 1e-05 s⁻¹ |  | < 1e-05 s⁻¹ | < 1e-05 s⁻¹
15 | G9A C50G U65G G66C C70G | 5.55e-05 ± 2.4e-05 s⁻¹ |  |  |  | 4.91e-05 ± 1.6e-05 s⁻¹
16 | G32A C61G U69C | 3.85e-05 ± 1.8e-05 s⁻¹ | 7.4e-05 ± 2.3e-05 s⁻¹ |  |  | 3.49e-05 ± 1.7e-05 s⁻¹
17 | G29U G44A | < 1e-05 s⁻¹ |  | < 1e-05 s⁻¹ |  | 3.45e-05 ± 9.6e-06 s⁻¹
18 | G7U A42U G44C | < 1e-05 s⁻¹ |  |  |  | < 1e-05 s⁻¹
19 | G51C G60U | < 1e-05 s⁻¹ |  | < 1e-05 s⁻¹ | < 1e-05 s⁻¹ | < 1e-05 s⁻¹
20 | A6C A48U | < 1e-05 s⁻¹ | < 1e-05 s⁻¹ |  |  | 
21 | G7A G32A U45A A52G U65G | < 1e-05 s⁻¹ |  |  |  | 
22 | C16U A42U U45C G59A C68U | < 1e-05 s⁻¹ |  |  |  | < 1e-05 s⁻¹
23 | G60C C71G | < 1e-05 s⁻¹ |  | < 1e-05 s⁻¹ |  | < 1e-05 s⁻¹
24 | G13C G29U G32A U54G U65C C68G U69G | 0.00014 ± 4.1e-05 s⁻¹ | 9.24e-05 ± 2.8e-05 s⁻¹ | 0.000198 ± 5.6e-05 s⁻¹ | 0.000623 ± 0.00016 s⁻¹ | 0.000151 ± 3.1e-05 s⁻¹

Row | Variant | self-cleavage kobs at 40 uM GlcN6P (glucosamine-6-phosphate [1]) | self-cleavage kobs at 2500 uM GlcN6P (glucosamine-6-phosphate [2]) | self-cleavage kobs at 160 uM GlcN6P (glucosamine-6-phosphate [3]) | self-cleavage kobs at 640 uM GlcN6P (glucosamine-6-phosphate [4]) | self-cleavage kobs at 10000 uM GlcN6P (glucosamine-6-phosphate [5])
25 | G38A C58U U69C | < 1e-05 s⁻¹ |  |  |  | < 1e-05 s⁻¹
26 | C10G A39C U45A U54G G62C | < 1e-05 s⁻¹ |  |  |  | < 1e-05 s⁻¹
27 | A15G G32U U56G G60U | < 1e-05 s⁻¹ |  |  |  | 
28 | G32C G51A G66A | < 1e-05 s⁻¹ | < 1e-05 s⁻¹ |  | < 1e-05 s⁻¹ | < 1e-05 s⁻¹
29 | G7C U31G G43A U55G C68U | < 1e-05 s⁻¹ |  |  |  | 
30 | G29C U56G C70U | 6.27e-05 ± 2.2e-05 s⁻¹ |  |  |  | 0.00013 ± 3.2e-05 s⁻¹
31 | C10U C50G C70G | 5.33e-05 ± 1.6e-05 s⁻¹ |  |  |  | 
32 | C10A A48U A52C A64G | < 1e-05 s⁻¹ |  |  |  | 
33 | C34U G51U U54C U57G | < 1e-05 s⁻¹ | < 1e-05 s⁻¹ |  |  | 
34 | G60U G62U | < 1e-05 s⁻¹ | < 1e-05 s⁻¹ | < 1e-05 s⁻¹ | < 1e-05 s⁻¹ | < 1e-05 s⁻¹
35 | A14C G29A C61G | < 1e-05 s⁻¹ |  |  |  | < 1e-05 s⁻¹
36 | A36U U45C C50U | < 1e-05 s⁻¹ |  |  |  | 
37 | G9A C10U A14U U31C G40C C70A | < 1e-05 s⁻¹ |  |  |  | < 1e-05 s⁻¹
38 | U30A G62A | < 1e-05 s⁻¹ | < 1e-05 s⁻¹ |  | < 1e-05 s⁻¹ | < 1e-05 s⁻¹
39 | G62C U65A | < 1e-05 s⁻¹ |  |  |  | 
40 | A6U A48U C70U | < 1e-05 s⁻¹ |  |  |  | 
41 | G29A G32U C34G C50A C61U | < 1e-05 s⁻¹ |  |  |  | < 1e-05 s⁻¹
42 | G59C C67G C70G | < 1e-05 s⁻¹ |  |  |  | 
43 | G7U U31C G59U | < 1e-05 s⁻¹ |  |  |  | 
44 | A39C U65G C70G | < 1e-05 s⁻¹ |  | < 1e-05 s⁻¹ | < 1e-05 s⁻¹ | < 1e-05 s⁻¹
45 | U30C G35A | < 1e-05 s⁻¹ | < 1e-05 s⁻¹ | < 1e-05 s⁻¹ | < 1e-05 s⁻¹ | < 1e-05 s⁻¹
46 | G60U A64U | < 1e-05 s⁻¹ | < 1e-05 s⁻¹ | < 1e-05 s⁻¹ |  | < 1e-05 s⁻¹
47 | C10A A36C | < 1e-05 s⁻¹ | < 1e-05 s⁻¹ |  | < 1e-05 s⁻¹ | < 1e-05 s⁻¹
